Results from paper PMC6803640, “Oligomeric state, hydrodynamic properties and target recognition of human Calcium and Integrin Binding protein 2 (CIB2)” (Scientific Reports, 2019).
Values joined by “and” are separate entries in the source; they are usually repeats but may differ in a detail not shown here. Identical values can stand only once. Where a SMILES comes first, the peptide text is derived from it.

Key:
CIB2 = assay: Near-UV circular dichroism; type: physicochemical, human; conditions: 37 °C
Method: CIB2 tertiary structure was investigated by using a Jasco J-710 spectropolarimeter equipped with a Peltier type cell holder as previously described. Briefly: near-UV (250–320 nm) CD spectra of 20 μM of sole CIB2 or CIB2/α7B_M complexes (1:1 and 1:2 ratios) were collected in the presence of 500 μM EGTA and after sequential additions of 1 mM Mg^2+ and 2 mM free Ca^2+. A 1 cm quartz cuvette was used, temperature was set at 37 °C, integration time and data pitch were set to 4 s and 1 nm, respectively. Each spectrum represents the average of 5 accumulations. […]
Figure S4: Structural comparison of His-CIB2 (A) and CIB2 (B). Near-UV CD spectra (250-320 nm) of 20-30 µM CIB2 were collected at 37°C in a quartz cuvette with 1 cm length path. Sequential additions of 500 µM EGTA (black), 1 mM Mg2+ (blue) and 2 mM Ca2+ (red) were performed. Near-UV CD spectra of the buffer (20 mM HEPES pH 7.5, 150 mM KCl, 1 mM DTT) was considered as blank and subtracted. Each spectrum represents the mean of 5 accumulations. Data were normalized according to the protein concentration and the number of residues (Molar Residue Ellipticity, MRE).
Figure S5: Near-UV CD spectra of CIB2 in the presence of different stoichiometric ratios of alpha7B_M peptide. Near-UV CD spectra (250-320nm) of 20 μM CIB2 in the absence of peptide (black lines) and in the presence of two different protein/peptide ratios (1:1 blue lines; 1:2 red lines) collected at 37°C in the presence of 500 μM EGTA (A) and after sequential additions of 1 mM Mg2+ (B) and 2 mM free Ca2+ (C). The spectrum of alpha7B_M peptide in the absence of CIB2 is shown in dashed grey lines. […]

Trypsin = assay: Limited proteolysis of CIB2 with trypsin; conditions: 30 min, 25 °C, 25 µM CIB2, trypsin 1:100, SDS-PAGE
Method: (§1) Figure 5 CIB2 limited proteolysis. (A) 10 µM CIB2 was incubated at 25 °C in the presence of 1 mM EDTA (Apo), 500 µM EGTA + 1 mM Mg^2+ (Mg^2+) and 1 mM Mg^2+ + 2 mM Ca^2+ for 10 minutes at 25 °C. Samples were boiled and loaded in a 18% SDS polyacrylamide gel. (B) Limited proteolysis was performed incubating trypsin with 25 µM CIB2 in the same concentrations of ions used for (A) (protein:enzyme ratio was 100:1). Samples were collected at different times, boiled and loaded on a 18% SDS-PAGE. Both gels run for 45–50 min, then they were Coomassie Blue-stained. The figure results from two separate gels, which have been reported in full length in Fig. S6.
Limited proteolysis experiments were performed incubating 25 µM CIB2 in the presence of Trypsin (Sigma) in a ratio 1:100 enzyme:CIB2 at 25 °C. Three conditions were tested: 1 mM EDTA, 500 µM EGTA + 1 mM Mg^2+ and 1 mM Mg^2+ + 2 mM Ca^2+. Time-resolved proteolysis patterns are reported in Supplementary Materials (Fig. S2), results shown in Fig. 5 refer to reactions stopped after 5 min and 30 min. Proteolysis products were loaded on a 15% or 18% SDS gel, as indicated.
His-tagged proteins, and then blocked via amine coupling as explained above. Preparation of the […]
approximately 2250 RU of CIB2 immobilized. […]

[1] = Native ESI-MS oligomeric state of CIB2; type: physicochemical; conditions: 14 µM CIB2 in 200 mM ammonium acetate, pH 6.8; collision energy 60 V
Method: For native ESI-MS analyses (High-Mass Q-TOF II mass spectrometer, Waters/MSVision), CIB2 was prepared in 200 mM ammonium acetate, pH 6.8.

[2] = cited from earlier work
Text: Moreover, DLS experiments performed with the samples collected immediately after elution from the SEC column measured a relatively high hydrodynamic diameter (d^Mg = 8.43 nm and d^Ca = 8.18 nm), which was also interpreted as an evidence of a dimeric protein[8]. […] This shoulder (here denominated A1) was collected together with the main peak (A2) in our previous work[8]. In contrast, the two fractions were separately collected and analyzed in the present study.

[3] = CIB2 stability at 25 °C without trypsin (SDS-PAGE); type: physicochemical; conditions: 10 µM CIB2, 10 minutes at 25 °C; EDTA, Mg^2+, Mg^2+ + Ca^2+
Method: as §1

[4] = Analytical size exclusion chromatography; type: physicochemical
Method: The molecular weight (MW) of the proteins was determined before and after DSBU-modification as previously described[7] in the same buffer (20 mM HEPES, pH 7.5, 1 mM DTT, 1 mM Mg^2+ and 2 mM Ca^2+). […] Standard calibration curve for MW estimation was the same used in our previous study.

Molecule: CSCC[C@H](NC(=O)[C@H](CCCCN)NC(=O)[C@H](Cc1c[nH]c2ccccc12)NC(=O)[C@H](CC(C)C)NC(=O)[C@H](CC(C)C)NC(=O)[C@H](CC(C)C)NC(C)=O)C(=O)NCC(=O)N[C@@H](Cc1ccccc1)C(=O)N[C@@H](Cc1ccccc1)C(=O)N[C@@H](CCCCN)C(=O)N[C@@H](CCCNC(=N)N)C(=O)N[C@@H](C)C(=O)N[C@@H](CCCCN)C(=O)N[C@@H](Cc1c[nH]cn1)C(=O)N1CCC[C@H]1C(=O)N[C@@H](CCC(=O)O)C(N)=O [α7B_M] (Ac-LLLWKMGFFKRAKHPE-NH2)
- near-UV CD, effect of peptide on apo-CIB2 (CIB2; 20 μM CIB2, 500 μM EGTA, 1:1 and 2:1 peptide:protein): finer spectrum in the phenylalanine and tyrosine bands
- near-UV CD, effect of peptide on cation-bound CIB2 (CIB2; 20 μM CIB2, 1 mM Mg^2+ and co-presence of 2 mM Ca^2+, 1:1 and 2:1 peptide:protein): the intensity of the resulting spectrum was lower compared to that of CIB2 without the peptide
- near-UV CD, structure of isolated peptide (CIB2; 500 μM EGTA, 1 mM Mg^2+, 2 mM Ca^2+): unfolded in all the tested cases
- near-UV CD, tryptophan region (CIB2; incubation of CIB2 with peptide): no clear signal was visible

B1: CIB2: Recombinant human CIB2, Ca^2+ and Mg^2+-binding protein (protein)
chain: MGNKQTIFTEEQLDNYQDCTFFNKKDILKLHSRFYELAPNLVPMDYRKSPIVHVPMSLIIQMPELRENPFKERIVAAFSEDGEGNLTFNDFVDMFSVLCESAPRELKANYAFKIYDFNTDNFICKEDLELTLARLTKSELDEEEVVLVCDKVIEEADLDGDGKLGFADFEDMIAKAPDFLSTFHIRI
modifications: left off: His tag, end not stated, cleaved
- native band after trypsin (Trypsin; 1 mM EDTA (apo)): completely lost
- native band after trypsin (Trypsin; 1 mM Mg^2+ or 1 mM Mg^2+ + 2 mM Ca^2+): permitted the detection of the native CIB2 band even after 30 min
- oligomeric state, native MS [1]: no signals of CIB2 dimers, nor higher order oligomers were detected
- hydrodynamic diameter d^Ca ([2]; Ca^2+, collected immediately after SEC): 8.18 nm
- hydrodynamic diameter d^Mg ([2]; Mg^2+, A1 and A2 collected in one sample): 8.43 nm and 8.4 nm
- degradation without trypsin [3]: some propensity to degradation
- apparent MW (MW^SEC) ([4]; absence of cross-linker, 1 mM Mg^2+, 2 mM Ca^2+): 35.9 kDa
- MW^SEC ([4]; analytical SEC, 20 mM HEPES pH 7.4, 150 mM KCl, 1 mM DTT, 1 mM Mg^2+, 2 mM Ca^2+, CIB2 ∼70 µM (A2 band), Rec ∼80 µM, CaM ∼110 µM): 37.8 kDa
- MW^SEC, A1 shoulder ([4]; lower intensity shoulder A1 at lower elution time, predicted): 81.3 kDa
- apparent MW (MW^SEC) ([4]; presence of DSBU cross-linker, 1 mM Mg^2+, 2 mM Ca^2+): 36.7 kDa
